US7056679B2, “Target specific screening and its use for identifying target binders” (Antyra, Inc., priority 2001, dated 2006)

How the values were obtained:
DGI-2 = molecular target: T1, DGI-2 (Homo sapiens, UniProt Q15004); test: ELISA analysis of phage on DGI-2 polypeptide (specific binding); conditions: for DGI-2 (OD): binding to DGI-2 polypeptide (specific binding), phage ELISA units read at 405 nm; for DGI-2/LDH (OD): ratio of specific binding to non-specific binding
T1 construct: encompassed the entire DGI-2 open reading frame (ORF); His-tag of vector pIVEX2.3-MCS (inferred from the vector and from the reverse primer lacking a stop codon); made in house; host or cells: cell-free in vitro translation (Rapid Translation System RTS, Roche; E. coli lysate)
T1 sequence (Q15004 1-111): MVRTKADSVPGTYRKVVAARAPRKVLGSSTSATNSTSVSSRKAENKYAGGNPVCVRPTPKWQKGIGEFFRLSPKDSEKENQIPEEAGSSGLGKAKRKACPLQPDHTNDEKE
Procedure, shortened: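 Recombinant DGI-2 from in vitro translation, LDH (non-specific) and controls were coated at 500 ng/well and blocked with 2% milk-PBS. Phage from individual clones bound for 2 hr at room temperature, then anti-M13-HRP with ABTS was read at 405 nm; a clone counted as positive at ≥2-fold over background.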

[1] = test system: lactate dehydrogenase (LDH); test: ELISA analysis of phage on LDH (irrelevant, non-specific target); type: binding; conditions: peptide binding to LDH polypeptide (non-specific binding); phage ELISA units read at 405 nm
Procedure, shortened: (§1)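 Phage from picked clones (M13KO7 helper) bound 2 hr at room temperature to wells coated overnight at 4 °C with 500 ng/well anti-ETAG antibody or LDH, milk-blocked. Detection with HRP-anti-M13 (1:3000) and ABTS at 405 nm; positive when A405 ≥2-fold over background.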

E-tag antibody = test: ELISA analysis of phage on antibody raised against ETAG (positive control); conditions: peptide binding to E-tag antibody; phage ELISA units read at 405 nm
Procedure, shortened: as §1

| Sequence | DGI-2 (OD) (DGI-2) | DGI-2/LDH (OD) (DGI-2) | LDH (OD) [1] [OD] | ETAG (OD) (E-tag antibody) |
| --- | --- | --- | --- | --- |
| RMYNCHYIERLYDWHAGRJLLQDPA (RMYNCHYIERLYDWHAGRILLQDPA; not fully specified; non-natural residue J; DGI-2-20C-4-E926; listed as Escherichia coli) | 2.9 | 3.0 | 1.0 | 17.4 |
| RNWLDKDCVWMGDCGARAGE (DGI-2-20F-4-E3; listed as Escherichia coli) | 3.8 | 4.1 | 0.9 | 16.9 |
| RPVVCLAGLTLAQFGWVFPGWRGWS (DGI-2-20C-3-C1039; listed as Escherichia coli) | 4.7 | 4.7 | 1.0 | 11.8 |
| RQRSGGRWVVDRVTRVASTSP (DGI-2-20F-PP-B12; listed as Escherichia coli) | 2.3 | 2.2 | 1.1 | 1.9 |
| RRFVRCSVPVALRSAVPVSV (DGI-2-20F-PP-A10; listed as Escherichia coli) | 2.4 | 2.4 | 1.0 | 16.3 |
| RRGVCEIFTGWCVGQTNERP (DGI-2-20R-4-H626; listed as Escherichia coli) | 9.6 | 8.8 | 1.1 | 13.5 |
| RRILPWSFPGCGRMC (DGI-2-20R-3-A10; listed as Escherichia coli) [DGJ-2-20R-3-A10] | 6.2 | 5.9 | 1.1 | 16.4 |
| RRTQPAYRSGADDRTSGFYCYVTSALSAGAWMPFLPRRLA (DGI-2-40F-3-A12; listed as Escherichia coli) | 0.9 | 1.1 | 0.8 | 4.6 |
| RRTSADTDQLSRWEGAQAFSSLRSALSERLDSLRPGLPPS (DGI-2-40F-3-D9; listed as Escherichia coli) | 1.1 | 1.4 | 0.8 | 15.8 |
| RSIRLQLIDEACQFFDGLCT (DGI-2-20R-3-A8; listed as Escherichia coli) | 6.9 | 6.4 | 1.1 | 15.3 |
| RSQVRVVSRERSTPVLIHIRIECLLFSGWCVTSGSDEGVVWG [DGI-2-40F-4-F122] | 4.7 | 5.7 | 0.8 | 8.1 |
| RSRSSSGASGSMLRVQNHMVLGSWMVRQPMGSMTPFHGHG (DGI-2-40F-3-B5; listed as Escherichia coli) | 1.0 | 1.2 | 0.9 | 9.2 |
| RSYPRLCKQKGGVIGRMLPG (DGI-2-20F-PP-B2; listed as Escherichia coli) | 3.3 | 2.9 | 1.1 | 35.9 |
